Assay: soluble on expression in E. coli; label from the status in PepcDB or PDB records
For “MGSDKIHHHHHHMAGVILLLMGEGLACAHDTALLDKAGRLMASRDYAAAYALLEPVESEYSGDPAYDMLFGLAAIDSGHVTRGVFALERVLAVQPYNGNARAQIARAYFLLGEQEAARAEFRNVLNQQPPEEITQVINRYMSAIDKAQGLTTAFSAYLEGGVGHDSNVNSATAASSVTVAVPALGGLIVDIGLDRQARESSDNYTNLAGGISFRTPLARRFALFAGINASQRLNRHQDAFDLGMLDANVGLSYRQHRDTYTVAAQANSLSLDDQTYRRAYGINMQWQRDIDTKNQVNLFAQVSRLAYPDNRIRDADRYIVGGGWAHVFDGDLTPLLFVSGYGGKEQARNEYADFLSYRVHGVRSGGQLTLRPNLVAFTTLGYENRRHDEPETFPFLFATREDKQLDASVGLRYLPGYNWIIKPQFTFIRNDSTVELYSFDRYMVSVSVRREFNW”, the “soluble on expression in E. coli” value was “not soluble”. For “MGSDKIHHHHHHMPHYDVVDTSNNNGIMTVANWRSMKKYGVKAMIAKLSEGTYFTDQTAKPSIRNAITAGLHVNGYHFARFTTETGAKAEAQMAARSALKAGLGKSSVIVLDFEATNSGWNQNSKIVKAWINEVHRMGYPKTDVYTMGSWINSVPLNNSGRGGWVANYPYNPSGFKLYTGYNGWQWTSSMHFPGCYGGFDVSQMYSNYYYGTTTHVAKPKKAIYYRYNPKMIYARTPINRYKDVAFKHKVDNFPAGTVFAIAKVINYGKITRFQLANGYYITSNQTNVNRLYYSVDGGVKRVKSVRGTHRYKDKALKHVVDWQPAETEFDVAKIVKYGDTTRIQLANGLFISGNKKINKFVK”, the “soluble on expression in E. coli” value was “not soluble”. In the case of “MASSEGLASVDPWSFRQNFNIDSWLLSDSFSHDSDILAKALHRSISTSTESSPLSPSSFFDSSTAAVDFSPPQTLSNVSFGSDPEIPAASALGLGKRKRGPGVSGGKQTKRRSRVSNKKSQTTFITADAANFRQMVQQVTGAKFLGSSNSIFAPIVKPEPHRLASRLPPSCGNLDRSSAVPTLDTSSFLSNHHQENIITDLGAPTGSFHHQSSAGTTTANVGGGSSAVELDSYPSFPTLESWKVM”, the “soluble on expression in E. coli” value was “not soluble”. In the case of “MAHHHHHHMANAELVDAGCFITQMNELLLIDPLYINCTMTNYCNSYISGKEKLLPRERLNGIYFKNAKPGLWSSFAIRENNQACLKKTSNQETETDAENRNNNNSYNNVRNEMVLSFICFNNTEYMHEYLTVEKVDKLKWEKVKPNESHLRVGQADQYNSTVNIEYKNEKTGIFHHNKNELLPLENYFTNVLTIESGQVGLFCMESIKHSADLLFQKHEMNNISNKEELDNLFNQNMNDLYPWFEKICNLTLSSSVAVVDFIDMPIGCVCLSSSDCVVNYLCEVVRDEVTDEVWAIRVNFLSPLK”, the “soluble on expression in E. coli” value was “soluble”. For “MAKPDQLELLFDVAPPADPASAAPPGAPPRKTPKARPAPPAPAAIATPCPDPLPPGARWREVHTEQQPIGFVLLRSRRRSIGFVVADDGLRVTAPNWVTLGQIDDAVREKARWILAKLRDWHARKEQLAMAHTRWQAGGELPYLGKRIVLGLGAERRQACLSGDADAPCDGDTLWLALPVDADQARIRDAAQAWLQQRAGAWFGARLAHFLQLTGLRIRRWRLSSAATRWGSCTSDGNIMLNWRLIHFAPAIIDYVIAHELAHLREMNHSQDFWTEVGHILPGFEDAKNVLRRHDPATLPQFLEHHHHHH”, the “soluble on expression in E. coli” value was “soluble”. For “MIKKQDPLNHPESVDVAIIGAGPAGAVAAALLRQAGQQVLVLERQHFPRFSIGESLLPQSMAYLEQAGMLRAVVEAGFQYKNGAYFVHGDKTAAFDFRDKHSDGWGTTYQVERAAFDQILINCAADQGADVRFGHSVRAVQPGDAPVLEVQTESGDTYTVHARFILDASGFGRVLPRLLNLEAPTGMPLRAALFSHVQDALPAGMTDRNKICIAVHPERRDVWYWMIPLANGRSSVGCVAEASFLDIPEAEREAALRALIRAEPNIASLIGDAPFLMPVRHIGGYAANVEKLHGPGYALLGNAGEFLDPVFSSGVTIALRSADLAVRALLRQLAGETVDWQSVYDVPLRRGIDTFRAFIERWYTGELQDIIFHPQQAPGIRRMISAILAGYAWDETNPFVADPVRRLNTLHEVCRLEAVLEHHHHHH”, the “soluble on expression in E. coli” value was “not soluble”. With “SADWARAQSPGAVEEILDRENKRMADSLASKVTRLKSLALDIDRDAEDQNRYLDGMVRAHGVRVSVPCPSTTCCRACSVSFSTGAGGWSNHHFCVILLGFLP” the “soluble on expression in E. coli” value was “soluble”. With “MGSDKIHHHHHHMTHQANDAVAPASGMIELSHSFDANRFLAAVDRDERATLIANLQLVHLKSGQVLCEPGEMLTAVYLPVTTAISLQYVSTGGMTLEVAQIGSESVVCDDVIGGSGRMPCRAVACRDGFVYRLDRRIFAAAFDASPVIRHLVFVCVRLLMAQVAQITFCSRHHVLKHQLCRWFLLAYDRSRSIEIQVTHSMLAQMLGVRRETVTDAAGEIQRLGLIRQYRSSIVLADLAGLEKLSCGCRAIVRDEMKRILSADSGVSAAARA” the “soluble on expression in E. coli” value was “not soluble”. For “MHDHMITFQLATHFLSRIALRLEYLFKTINEACNESHEVIHRFALKNIIEIVEIVEKPELKSRFIKELIRIEHVLKKANLLNHSELFDDLETQIHVLNHVPGRFSNKIHDDEFLKTLRQIHHPNTKECEFNSPHLVLWFDSDPLMRQKTISQWVSCLKDLEDTVKIYLSLLRGVTQYTPIRANNGFYQHSLSPKSLNHLILLRIDKKLKMIPKIQLGHHSLTIRLYELVTGQEIRDKTIEMEIAFCQI”, the “soluble on expression in E. coli” value was “not soluble”. With “MSVVAQVSGEEVTRLLAPIDPAVPAGLFDVEDETYQAIDQEMVKLGGLQEASIDWVYIEDASRQYLSQQCKHLRIVAHLSAAWLRSGCWEQWGCTLALLAGMLECYWEAAHPKPGPKGFLGKRKLVALVIDRLAEALPRLDRFTYTPTHAAAAQAALKRLQQQETVQLDTAALGELERLLGKYSELANGVGEAAVPKAPAATEKPAPLADVIATPVSRMSMGNERETRRAVLSMAELINQQDPYDATGYQLRRFGLWAHIQVAPQVRQGNRTELMAVPLDITRFYEEAIASKAVDPALLQRIEKSLTACPFWIRGSFLAATVATQLAMCEVAEAIRCATARFVQRMPSLQQLCFSDGMVFVDDQCLAWLKGTQGPSGQGATPQEFSGLREELVSQLETGGIEPLLLRLQGLQAGVRAPRERCHTTVIAADLLAARGVSWLAQDLCANVARTMQQTTASAWEPEVFERLQQYAASPVLAVQDKDQEPR” the “soluble on expression in E. coli” value was “not soluble”. With “MMSKIFDLVVIGAGSGGLEAAWNAATLYKKRVAVIDVQMVHGPPFFSALGGTCVNVGCVPKKLMVTGAQYMEHLRESAGFGWEFDRTTLRAEWKNLIAVKDEAVLNINKSYDEMFRDTEGLEFFLGWGSLESKNVVNVRESADPASAVKERLETEHILLASGSWPHMPNIPGIEHCISSNEAFYLPEPPRRVLTVGGGFISVEFAGIFNAYKPKDGQVTLCYRGEMILRGFDHTLREELTKQLTANGIQILTKENPAKVELNADGSKSVTFESGKKMDFDLVMMAIGRSPRTKDLQLQNAGVMIKNGGVQVDEYSRTNVSNIYAIGDVTNRVMLTPVAINEAAALVDTVFGTTPRKTDHTRVASAVFSIPPIGTCGLIEEVASKRYEVVAVYLSSFTPLMHKVSGSKYKTFVAKIITNHSDGTVLGVHLLGDNAPEIIQGIGICLKLNAKISDFYNTIGVHPTSAEELCSMRTPSYYYVKGEKMEKPSEASL” the “soluble on expression in E. coli” value was “soluble”. In the case of “MGSDKIHHHHHHMKKLRVPHRTKSARVVQELVRLAAGLAASGSRVEDAFWENCLTAKIHAQLRTGDDQNLESALDQLYDTDPGGYSEFMYAIEAAIECSIFTRGNHTYDVLMLAVPMLTWSRFSIPSGLIAESVLSELRGQLQVQVLADDAQLALADCLFSPDQLPRGYHLTHELARKLWSTAVTGQRDLHMNPRQLPETGRFLSDTRYLLGGIAVPQGKPMFRWQQGTAGEHKGSNVSALQFSKEQILHAWQTHGTAVLLPLFQGCAFELLMPDGFFSAWRAADRLARPYSVRATVDFLETTLGISPDRLRAVIAPFYDQWLEEYRIGFTLKDRDSVLYGIIWGLVGDEDENTDSVAQIEAALRECGVTQTILLQEHFLLEYCEECGGPLFPNVNGEIVHAEFPEEGEVAPIHLH”, the “soluble on expression in E. coli” value was “not soluble”. In the case of “MSLAIGRILIIDDENINAETMMDTLEDVNYHVVLAANANQAKTIVEDQIFDLVMMDVWMPAQDGMSLLEEWTQSGFSTPIVMMSGHAEHQDVVKAIKLGAVDFLEKPLHDILPLVRKILSEQVLEKSEHTINGIEFNAPLKEARNIFEVQYFNHHLQENKHNIAKVAILAGLERTTLYRKLKDLGIDKEGHHHHHH”, the “soluble on expression in E. coli” value was “soluble”. For “MGCGFSRQHVVKTNVSSFDRELLDLKIQRDSLQQYEQRLSDSLKNYIKLARRLVAENQRQQALVVLQVKHALQKSIEKAQNMRFNLEQVLSEIELKQIETDYVLKLRTGTKLLQSIQKTLSIEEIEHLLEETKEAIEFQNKVTEVLGSFSLMEIDESCEEELEQLETAMFPPVPKRLEKTMTPQVTENMQVKSETAKEYSKQESILLPS”, the “soluble on expression in E. coli” value was “soluble”. For “MTKLVKINYPNIDEDLYYVKLENGLTVYFIKKIGFLEKTAMLTVGFGSLDNKLTVDDESRDAPAGIAHFLEHKLFEDESGGDISLKFTQLGAETNAFTTFNQTSFFFSTASKFQENLELLQYFVLSANITDESVSREKKIIGQEIDMYQDDADYRAYSGILQNLFPKTSLANDIAGSKASIQKITKILLETHHTYFYQPTNMSLFIVGDIDIDETFLAIQRFQTTLSYPDRKRVTVDPLHYYPVIKSSSVDMDVTTAKLVVGFRGYLTLTQHSLLTYRIALKLFLSMLIGWTSKIYHTLYEDGKIDDSFDVDVEIHHNFQFVLISLDTPEPIAMSNYIRQKLATIKISKEFTNEHLNLLKKEMYGDFIQSLDSIEHLTHQFSLYLSDSDKETYFDIPKIIERLTLKDVVTIGKAFFEKADASDFTVFPK”, the “soluble on expression in E. coli” value was “not soluble”. With “DDGEPYALCVVATDITDQKQRERELARLTDEYAAVFENTNDAIALVDIEEPADDPTFRYVRTNEAYERQTGFDTESLTGQTPVEAAGPDIGRRIADHYKQCVSAGEPITFEERDLHPTGVWETQVTPIAADG” the “soluble on expression in E. coli” value was “not soluble”. In the case of “MAHHHHHHMSLNAADAADERSRKEMDRFQVERMAGQGTFGTVQLGKEKSTGMSVAIKKVIQDPRFRNRELQIMQDLAVLHHPNIVQLQSYFYTLGERDRRDIYLNVVMEYVPDTLHRCCRNYYRRQVAPPPILIKVFLFQLIRSIGCLHLPSVNVCHRDIKPHNVLVNEADGTLKLCDFGSAKKLSPSEPNVAYICSRYYRAPELIFGNQHYTTSVDIWSVGCIFAEMMLGEPIFRGDNSAGQLHEIVRVLGCPSREVLRKLNPSHTDVDLYNSKGIPWSSVFCDHSLKDAKEAYDLLSALLQYLPEDRMKPYEALCHPYFDELHDSATKLPNNKDLPEDLFRFLPSEIEVMSEAQKAKLVRK”, the “soluble on expression in E. coli” value was “not soluble”. In the case of “MGSSHHHHHHGGTGENLYFQGGSGAGIDYSKWDKLCDSGTSSGTEYEGDRDDKGHDDSSRAPQVTRLEYPSRVTLGPNGVQLEQVPPKASASPFPGTCAPPEETDNGSVAVARCPIKEESFHAEYDTGASNASSHATGNTAGRRDDDQERMGATDDDEDLLYESLARNGGREGSHHWWTQTEDTVTVSFLVPWETKGKSVTEFRLYEARSTTALESELLQAHLEITILVRPACLTSPSSGPSASAAPLRIHQVFRYPVKLSEDLIDGCWQLHFMPRRHLRLLVVQLFKEPVGLGMTLWWDRCFVTDTTSVIADTQTIPDRKRRMEATPGSKEKAGQFRKVWADAHEEFRRRAQERKRKIIE”, the “soluble on expression in E. coli” value was “not soluble”. With “MSLTPDLLNFKKGWMSILDEPGEPPSPSLTTTSTSQWKKHWFVLTDSSLKYYRDSTAEEADELDGEIDLRSCTDVTEYAVQRNYGFQIHTKDAVYTLSAMTSGIRRNWIEALRKTVRPTSAPDVTEGHHHHHH” the “soluble on expression in E. coli” value was “soluble”. In the case of “MAHHHHHHMKPVYRYAMNHEYNINSICPIAYSDQFATADDATVLLWCTEYPDTSIETHDMRSPYEDGPRETICAVRNFPHEPFLFFVATSGGSVRVVDTRQTLRWGDQAAQAFINPPREEDEPFSNVTNSICDCALSPSGRYIAGRDFMSICLWDIRMAGSGGARNAPATPRRQAPAARGGDGNPECSMVRRWALHPHLRDDLDTIYQSNLLFDKFDVQFLSSRQVCTGGFNNTLYTMDVEGTSADAASDIRTFQLLKTEGISEFRRTTVSAHRRGEDRISTGQGLGSRMTLMSRPYMSMSGACGMMVACGQAVLQLSYNGLSK”, the “soluble on expression in E. coli” value was “not soluble”.
